Test results: the supplement of paper PMC10567573

B1: RHOBTB2 (parent)
chain: NQEITKAFHVRRTNRVKECLAKGT

Variants of: B1
Test: protein stability index of a GFP-peptide fusion (GPS, HEK-293T) (PSI 1-6); higher = more stable
Conditions: c terminus: a fixed tail appended
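Further: lentivirally expressed fusions sorted by FACS into six bins by GFP to DsRed ratio, PSI derived from sequencing read proportions per bin multiplied by bin number.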

Protein stability index, by site and new letter:
T13: N 3.54; D 4.09; Q 3.93; S 3.96; G 2.49; I 2.1; H 3.36; W 2.02; K 2.79; E 3.97; A 3.72; L 3.32; Y 1.78; M 3.57; C 2.78; P 3.98
N14: T 2.95; Q 3.09; R 2.97; K 3.15; V 2.83; M 2.54; F 2.15; P 3.38; H 3.43; L 3.09; C 1.88; S 2.48; E 4.4; W 2.15; I 3.58; G 3.17; D 3.82; A 4.05; Y 1.82
E18: Y 2.67; R 2.74; K 3.08; Q 2.87; T 3.93; P 2.59; F 2.59; H 2.58; S 2.59; W 2.23; L 2.83; A 3.08; D 3.47; M 2.75; G 2.88; I 1.94; N 2.92; V 3.4
V16: A 2.78; H 2.88; L 3.92; M 2.8; C 2.51; S 2.95; D 4.7; I 2.91; T 3.02; F 2.48; Q 2.79; R 3.21; P 4.09; K 3.41; N 3.41; W 3.4; E 3.45; Y 1.97
R12: Q 3.93; I 2.37; L 2.16; M 3.29; F 2.16; P 3.5; Y 2.67; S 3.95; T 3.69; C 2.68; W 2.38; V 2.83; D 3.78; N 3.92; K 4.31; A 4.05; G 4.51; H 3.72; E 4.16
H9: W 2.5; R 2.87; Y 3.2; S 2.98; T 3.31; V 2.4
K17: F 2.06; W 2.3; M 2.54; T 3.15; E 3.04; P 2.4; H 2.94; Q 2.55; L 3.12; V 2.26; C 2.22; Y 2.36; N 2.92; R 2.47; D 3.64; S 3.63; I 1.75; G 2.74
R11: V 2.22; K 3.62; W 2.61; N 4.05; F 3.62; L 3.21; Q 4.43; H 3.94; D 4.01; A 4.09; M 2.81; T 3.82; P 4.36; E 4.25; C 3; Y 2.94; I 2.43; G 4.05; S 3.99
R15: D 4.21; C 3.27; P 3.29; K 3.29; G 2.9; V 3.73; F 2.84; W 2.58; M 3.78; T 3.87; L 3.36; I 3.12; S 3.54; Q 3.87; Y 2.86; A 3.66; N 3.48
V10: A 4.09; Y 3.78; F 3.39; E 4.71; K 4.42; I 3.25; G 3.46; C 3.62; Q 3.84; D 4.25; R 3.91; P 4.01; H 4.46; L 3.08; T 4.3; W 3.35; N 3.92
